The source of these data is publication PMC13223232, “Structural basis for TRF2-RAP1 recruitment by EBNA1 at the EBV origin of replication” (Scientific Reports, 2025).

The labels stand for the following.
T1: EBNA1 Δ90–325 3x (E495A D499A E500A) (Epstein-Barr virus, UniProt P03211 1-641, Δ90–325 | E495A | D499A | E500A)
T1 construct: also called 3x mutant EBNA1; source: E. coli, purified (Ni-NTA, SEC); not shown: His6-SUMO, N-terminal, cleaved
T1 sequence: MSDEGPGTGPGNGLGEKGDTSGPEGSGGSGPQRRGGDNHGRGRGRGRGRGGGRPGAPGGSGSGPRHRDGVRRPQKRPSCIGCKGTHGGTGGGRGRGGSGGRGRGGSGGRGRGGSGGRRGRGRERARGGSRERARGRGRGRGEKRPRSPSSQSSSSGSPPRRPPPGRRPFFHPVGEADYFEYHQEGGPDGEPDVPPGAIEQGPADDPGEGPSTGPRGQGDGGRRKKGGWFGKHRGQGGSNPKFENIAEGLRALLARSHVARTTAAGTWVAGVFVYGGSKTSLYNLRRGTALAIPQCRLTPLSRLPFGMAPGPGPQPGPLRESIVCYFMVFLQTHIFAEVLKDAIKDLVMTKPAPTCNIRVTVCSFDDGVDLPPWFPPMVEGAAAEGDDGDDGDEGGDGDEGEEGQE

T2: full-length Rap1 (human, UniProt Q9NYB0 1-399)
T2 construct: also called TERF2IP; source: E. coli, purified (Ni-NTA, SEC); not shown: His6-SUMO, N-terminal, cleaved
T2 sequence (looked up): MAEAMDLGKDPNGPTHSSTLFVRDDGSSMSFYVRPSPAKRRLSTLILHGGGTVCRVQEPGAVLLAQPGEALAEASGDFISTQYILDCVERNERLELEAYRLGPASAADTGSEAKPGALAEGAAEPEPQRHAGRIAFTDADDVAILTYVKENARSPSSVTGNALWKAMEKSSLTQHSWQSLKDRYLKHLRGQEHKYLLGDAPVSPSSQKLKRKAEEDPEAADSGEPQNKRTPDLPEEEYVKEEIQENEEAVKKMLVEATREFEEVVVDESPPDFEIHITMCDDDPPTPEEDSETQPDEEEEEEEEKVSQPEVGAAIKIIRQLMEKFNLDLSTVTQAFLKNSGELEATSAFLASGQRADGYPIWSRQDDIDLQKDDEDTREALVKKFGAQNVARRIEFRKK

T3: full-length TRF2 (human, UniProt Q15554 1-542)
T3 construct: also called TERF2; source: E. coli, purified (Ni-NTA, SEC); not shown: His6-SUMO, N-terminal, cleaved
T3 sequence (looked up): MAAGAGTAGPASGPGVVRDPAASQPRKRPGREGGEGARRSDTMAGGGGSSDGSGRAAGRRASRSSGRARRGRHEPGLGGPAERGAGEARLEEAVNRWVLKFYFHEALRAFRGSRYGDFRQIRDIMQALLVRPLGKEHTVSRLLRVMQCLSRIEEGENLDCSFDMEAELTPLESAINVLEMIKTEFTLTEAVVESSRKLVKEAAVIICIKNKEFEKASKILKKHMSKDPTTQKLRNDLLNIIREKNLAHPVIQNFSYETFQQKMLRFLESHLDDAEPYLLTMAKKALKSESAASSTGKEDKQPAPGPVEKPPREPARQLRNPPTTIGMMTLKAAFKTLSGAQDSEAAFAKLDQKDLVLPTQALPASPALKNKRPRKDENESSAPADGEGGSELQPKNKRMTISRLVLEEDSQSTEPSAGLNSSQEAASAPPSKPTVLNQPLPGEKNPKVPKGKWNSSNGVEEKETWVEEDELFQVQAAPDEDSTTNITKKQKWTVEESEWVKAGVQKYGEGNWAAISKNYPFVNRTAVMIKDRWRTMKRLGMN

B1: EBNA1 459–607 (domain or fragment)
chain: RKKGGWFGKHRGQGGSNPKFENIAEGLRALLARSHVERTTDEGTWVAGVFVYGGSKTSLYNLRRGTALAIPQCRLTPLSRLPFGMAPGPGPQPGPLRESIVCYFMVFLQTHIFAEVLKDAIKDLVMTKPAPTCNIRVTVCSFDDGVDLP
notes: also called shorter EBNA1 459–607; core structured DBD; source: E. coli
B2: full length TRF2/Rap1 complex (complex)
chain 1: T3 sequence (looked up)
chain 2: T2 sequence (looked up)
notes: also called pre-assembled TRF2-Rap1 complex; source: E. coli, each purified (Ni-NTA, SEC); pre-assembled complex purified by glycerol gradient; not shown: His6-SUMO, N-terminal, cleaved
B3: GST-TRFH domain (amino acids 85–287) (domain or fragment, human, UniProt Q15554 85-287, looked up)
chain: AGEARLEEAVNRWVLKFYFHEALRAFRGSRYGDFRQIRDIMQALLVRPLGKEHTVSRLLRVMQCLSRIEEGENLDCSFDMEAELTPLESAINVLEMIKTEFTLTEAVVESSRKLVKEAAVIICIKNKEFEKASKILKKHMSKDPTTQKLRNDLLNIIREKNLAHPVIQNFSYETFQQKMLRFLESHLDDAEPYLLTMAKKALK
notes: also called TRF2 homodimerization domain; TRF2 dimerization domain; source: E. coli, purified to near homogeneity; not shown: GST, N-terminal, kept
B4: EBNA1 DNA binding domain (DBD) aa 401–607 (domain or fragment)
chain: GRRPFFHPVGEADYFEYHQEGGPDGEPDVPPGAIEQGPADDPGEGPSTGPRGQGDGGRRKKGGWFGKHRGQGGSNPKFENIAEGLRALLARSHVERTTDEGTWVAGVFVYGGSKTSLYNLRRGTALAIPQCRLTPLSRLPFGMAPGPGPQPGPLRESIVCYFMVFLQTHIFAEVLKDAIKDLVMTKPAPTCNIRVTVCSFDDGVDLP
notes: also called EBNA1 DBD; EBNA1 401–607; source: E. coli, purified (Ni-NTA, SEC); not shown: His6-SUMO, N-terminal, cleaved

Data set [1] has as its target B3. Kind of data set: native gel or EMSA; supershift of the ½ DS-EBNA1 complex by TRFH (no Myb domain); binding buffer lowered to 100 mM KCl, highest TRFH 10 µM (1000-fold stoichiometric excess); only a weak supershift under standard conditions (300 mM KCl). Particulars: both partners purified.
For data set [2], the target named is T1, EBNA1 Δ90–325 3x (E495A D499A E500A). Briefly: native gel or EMSA; pre-assembled TRF2-Rap1 complex (glycerol-gradient purified) serially diluted and added to pre-assembled ½ DS-EBNA1 complex (20 nM EBNA1 Δ90–325 WT, 3x or 8x, 5 nM ½ DS DNA); binding buffer with 300 mM KCl, pH 7.5. Particulars: both partners purified. A general note: In EMSA bound probe runs differently from free probe, usually more slowly.

The target of data set [3] is B4. Kind of data set: native gel or EMSA; supershift of the ½ DS-EBNA1 complex by TRFH (no Myb domain); binding buffer lowered to 100 mM KCl, highest TRFH 10 µM (1000-fold stoichiometric excess); only a weak supershift under standard conditions (300 mM KCl). The note with it: both partners purified.
Data set [4] deals with the molecule itself. Kind of data set: cryo-EM structure; ½ DS + EBNA1 DBD + TRF2 + Rap1 (1 : 4 : 2.5 : 2.5), GraFix (10-30% glycerol, 0.125% glutaraldehyde); estimated 7.1 Å reconstruction.
In data set [5] the target is B2. Kind of data set: native gel or EMSA; IRD700-labelled 60 bp ½ DS DNA probe (5 nM); Rap1, TRF2 or TRF2 + Rap1 titrated up to 480 nM without EBNA1, with EBNA1 401–607 or with EBNA1 Δ90–325; 10 mM HEPES pH 7.5, 300 mM KCl, 5 mM MgCl2, 1 mM ZnCl2, 5 mM BME, 0.05% NP-40, 5% glycerol; 1.4% agarose gel; all proteins meet on the DNA. The note with it: both partners purified.

Data set [6] concerns the target T2, full-length Rap1. Kind of data set: cross-linking; zero-length EDC/Sulfo-NHS cross-linking with LC-MS/MS; complex mixed 1 ½ DS DNA : 4 EBNA1 401–607 : 2.5 TRF2 : 2.5 Rap1, glycerol-gradient purified, 1 mg/mL in 20 mM MES pH 6.8, 100 mM NaCl, 1 mM MgCl2, 10 µM ZnCl2, 0.5 mM TCEP; 10 mM crosslinker, room temperature, 2 h. Particulars: both partners purified.
For data set [7], the target named is T3, full-length TRF2. The description is as above. The note with it: both partners purified.

On to B1, for which, in data set [1], the binding result is given as “binds”. On to B2, for which, in data set [2], the “fold weaker binding than with WT EBNA1” value was around 2 fold.

Regarding B3, the binding result in data set [3] is on record as “binds”. With B4, the binding result in data set [4], in data set [5], in data set [6] and in data set [7] was “binds” in each case.
